Assay [1] has as its target recombinant human TGF-β 1 protein (Cat: CA59, Novoprotein Scientific Inc.) (human) (UniProt P01137). Nature of the assay: BLI (Octet QKe), binder captured on AHC biosensor, 1:1 fit.
For assay [2] the target is unchanged. Nature of the assay: ELISA, target coated at 1 µg/ml, HRP-anti-human Fc detection.
For assay [3], the target named is T1, human TGF-β 2 (Cat: CJ79, Novoprotein Scientific Inc.) (human) (UniProt P61812).
T1 sequence (looked up): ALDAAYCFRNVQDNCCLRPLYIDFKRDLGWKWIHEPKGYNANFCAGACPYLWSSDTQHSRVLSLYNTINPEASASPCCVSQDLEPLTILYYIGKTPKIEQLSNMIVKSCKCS
Described as above.

The target of assay [4] is T2, human TGF-β 3 (Cat: CJ44, Novoprotein Scientific Inc.) (human) (UniProt P10600).
T2 sequence (looked up): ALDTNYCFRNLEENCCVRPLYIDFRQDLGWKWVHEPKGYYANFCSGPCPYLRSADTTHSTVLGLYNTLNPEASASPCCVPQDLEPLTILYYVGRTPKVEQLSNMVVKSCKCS
The assay is described as above.

Assay [5] deals with T3, recombinant human PD-L1-his protein (Accession No.: NP_054862.1, 19 aa-238 aa) (human, UniProt Q9NZQ7 19-238).
T3 construct: range 19-238; also called recombinant human PD-L1 extracellular domain protein; not shown: his tag
T3 sequence (Q9NZQ7 19-238 limits assumed): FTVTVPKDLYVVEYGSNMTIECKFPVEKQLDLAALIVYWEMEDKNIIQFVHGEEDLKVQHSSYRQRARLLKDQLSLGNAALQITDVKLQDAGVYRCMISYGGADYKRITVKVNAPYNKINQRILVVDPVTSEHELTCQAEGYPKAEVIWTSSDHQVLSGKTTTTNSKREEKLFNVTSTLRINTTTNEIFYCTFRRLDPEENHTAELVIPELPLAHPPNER
Kind of assay: BLI (Octet QKe), binder captured on AHC biosensor, analyte 60 nM, 1:1 fit. An excerpt: Antibody affinity was detected by an assay including capturing antibody Fc fragment with anti-human IgG Fc capture (AHC) biosensors on Octet QKe system instrument from Fortebio. […] The binding time was 300 s and the dissociation time was 300 s.

Kd and EC50 data for 2 molecules are collected here from US20230365653A1 (MABWELL SHANGHAI BIOSCIENCE, published 2023).

recombinant human TGF-β 1 protein (Cat: CA59, Novoprotein Scientific Inc.) (human), sequence (P01137 279-390 limits assumed): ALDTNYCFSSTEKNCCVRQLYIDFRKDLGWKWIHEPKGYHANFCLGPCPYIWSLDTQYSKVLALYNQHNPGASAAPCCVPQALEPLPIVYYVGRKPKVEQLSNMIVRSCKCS

For the molecule “recombinant protein M7824 (anti-human PD-L1 antibody/TGF-β RII fusion protein control)”, the Kd in assay [1] came to 2.81 nM. For the same molecule, the EC50 in assay [2] amounted to 0.472 nM; in assay [3], 18.2 nM; in assay [4], 0.981 nM.

B1: PD-L1 antibody H182-MUT4 (antibody, human IgG1, kappa, V domains shown)
VH: EVQLVQSGAEVKKPGATVKISCKVSGFNIKDIYMHWVQQAPGKGLEWMGRIDPANANTKYDPKFQDRVTITADTSTNTAYMELSSLRSEDTAVYYCASGQLGPLGFDYWGQGTTVTVSS
VL: DIQMTQSPSSLSASVGDRVTITCRASQDISNYLNWYQQKPGKAPKLLLYYTSRLHSGVPSRFSGSGSGTDYTLTISSLQPEDFATYFCQQGAGRPYTFGGGTKVEIKR
notes: 25-30 for the anti-human PD-L1 antibody without naming H182-MUT4; also called MW22
Consider B1, for which, in assay [5], the Kd is 0.433 nM.
